According to patent publication US20260041793A1, “VIRAL VECTOR” (University of Sheffield, priority 2022, published 2026):

B1: GCAGAGGAUCACCACGCUAUU UUCAAGAGA AAUAGCGUGGUGAUCCUCUGC (nucleic acid)
chain 1: GCAGAGGATCACCACGCTATT
chain 2: AAUAGCGUGGUGAUCCUCUGC
chain 3: GCAGAGGAUCACCACGCUAUUUUCAAGAGAAAUAGCGUGGUGAUCCUCUGC
modifications: expressed or natural sequence; chain 1: target site or template, no part of the molecule
notes: shRNA targeting SRSF1
B2: GGGCCCAGAAGUCCAAGUUAU UUCAAGAGA AUAACUUGGACUUCUGGGCCC (nucleic acid)
chain 1: GGGCCCAGAAGTCCAAGTTAT
chain 2: AUAACUUGGACUUCUGGGCCC
chain 3: GGGCCCAGAAGUCCAAGUUAUUUCAAGAGAAUAACUUGGACUUCUGGGCCC
modifications: expressed or natural sequence; chain 1: target site or template, no part of the molecule
notes: shRNA targeting SRSF1
B3: GGAAGAUCUCGAUCUCGAAGC UUCAAGAGA GCUUCGAGAUCGAGAUCUUCC (nucleic acid)
chain 1: GGAAGATCTCGATCTCGAAGC
chain 2: GCUUCGAGAUCGAGAUCUUCC
chain 3: GGAAGAUCUCGAUCUCGAAGCUUCAAGAGAGCUUCGAGAUCGAGAUCUUCC
modifications: expressed or natural sequence; chain 1: target site or template, no part of the molecule
notes: shRNA targeting SRSF1

These molecules were tested on SRSF1 (assay: Western immunoblotting of SRSF1 in human cells co-transfected with scAAV plasmids and C9ORF72-repeat reporter). Conditions: co-transfected with sense or antisense C9ORF72-repeat reporter, FIG. 4.
Assay type: cell-based

Depletion of SRSF1, efficient depletion of SRSF1:
B1
B2
B3
